Laboratory results published in patent publication US10668134B2, “Dental pretreatment material and dental tissue regeneration kit” (National Center for Geriatrics and Gerontology, priority 2016, dated 2020).

Columns and labels:
[1] = tested on: canine dental pulp stem cells; experiment: Induction of dental pulp and dentin by dental pulp stem cells attached to treated fine-grained dentin particles; type: cell-based; conditions: 7 days culture; for cell adhesion to treated dentin: fine-grained dentin treated for 10 minutes (0.05% trypsin; 1 mM EDTA; 0.05% chymotrypsin; 0.1 mg/mL MMP3), HE stain; for induction of the dental pulp stem cells into the dental pulp and dentin: fine-grained dentin treated for 10 minutes, vs untreated dentin
Description: A tooth was extracted from a dog. The cementum and dental pulp of the tooth were removed mechanically. The tooth was then rinsed with tapping water for 3 hours, and then crushed into grains. Fine grains of dentin particles having a diameter of 500 μm to 1,000 μm (fine-grained dentin) were separated by use of a sieve. The fine-grained dentin particles was treated with a mixture liquid containing chloroform and methanol at room temperature for 6 hours, and then, with LiCl (8.0 M) at 4° C. for 24 hours. The fine-grained dentin was then inactivated in distilled water at 55° C. for 24 hours. Thereafter, the fine-grained dentin were divided into six groups: group (i) treated with 0.05% trypsin for 10 minutes; group (ii) treated with 0.05% trypsin and 1 mM EDTA for 10 minutes; a group (iii) treated with 1 mM of EDTA for 10 minutes; group (iv) treated with 0.05% chymotrypsin for 10 minutes; group (v) treated with 0.1 mg/mL MMP3 for 10 minutes; and group (vi) subjected to no treatment. Three fine grains of each of the groups were mixed with 2×10^5 canine dental pulp stem cells. Each mixture underwent centrifugation at 2,000 rpm for 5 minutes, followed by culture in Dulbecco's Modified Eagle's Medium containing 10% FBS at 37° C. for 7 days in the presence of 5% CO2. The culture was then fixed overnight with 4% paraformaldehyde. Paraffin sections were prepared according to a common method, and sliced into 5 μm thick ultrathin sections. The ultrathin sections underwent HE stain.

[2] = tested on: TGW cells (human neuroblastoma cell line); experiment: Neurite outgrowth in TGW cells with culture conditioned medium of senescent dental pulp stem cells; type: cell-based; conditions: positive control, 50 ng/μl; after 48 hours
Description: Non-separated 22nd-passage human dental pulp stem cells were brought into a state of 50% confluence. The medium was replaced with a serum-free medium. After 24 hours, the culture conditioned medium was collected. The supernatant was concentrated approximately 40-fold using Amicon Ultra-15 Centrifugal Filter Unit with Ultracel-3 membrane (Millipore, Billerica, Mass.) with 3-kDa molecular cut. Proteinase inhibitors (Halt™ proteinase inhibitor cocktail EDTA-free, Thermo Scientific, Rockford, Ill., USA) was added. The mixture was dispended to be stored at −80° C. Protein content was measured using Bradford Ultra™ (Expedeon, Cambridge, UK).
The culture supernatant (5 μg/ml proteins) prepared in 1 above was added to TGW cells (human neuroblastoma cell line). Further, an ALK5 inhibitor (SB431542, 10 ng/μl) was added to a part of the resultant mixture, and a CCR3 antagonist (SB328437, 5 ng/μl) was added to another part of the resultant mixture. TGW cells to which only the culture supernatant was added was used as a negative control. […] Neurite outgrowth after 48 hours was observed and measured with an inverted microscope (Leica).

[3] = tested on: pulpectomized root canal of middle or advanced aged dog; experiment: Dental pulp regeneration following pulpectomy by autologous transplantation of dental pulp stem cells after trypsin pretreatment of the root canal; type: in vivo
Source text: Under general anesthesia, anterior teeth of upper and lower jaws of middle or advanced aged dog and young aged dog were pulpectomized. For each tooth, the root canal was enlarged with #50-55 to the apex, and was irrigated alternately with a 5% sodium hypochlorite solution and a 3% hydrogen peroxide solution, followed by washing with physiologic saline. The root canal was completely dried with paper points, and hemorrhage was controlled. The root canal was completely closed with a temporary seal of cement and resin. After 7 to 14 days following the pulpectomy, the temporary seal was removed, and the root canal underwent the alternate washing, and then, washing with physiologic saline. Smear clean (3% EDTA) was then allowed to react for 2 minutes. The root canal was then further washed with physiologic saline, and dried. Thereafter, FRANCETIN⋅T⋅POWDER (2500 USP of crystalized trypsin per 10 mg) (MOCHIDA PHARMACEUTICAL CO., LTD.) at a concentration of 50 μg/ml (0.05%) or 500 μg/ml (0.5%) was allowed to react in the root canal for 10 minutes or 30 minutes. Washing with physiologic saline was then performed. As a control, a tooth on the opposite side was not treated. Further, FRANCETIN⋅T⋅POWDER was mixed with a nanobubble liquid into a 50 μg/ml (0.05%) solution. The solution was allowed to act in a similar manner for 10 minutes, followed by washing with physiologic saline. A root canal filler was prepared by suspending 1×10^6 autologous dental pulp stem cells, which had been membrane-isolated, in 40 μl of a scaffold (Koken Atelocollagen Implant, KOKEN CO., LTD.), and by suspending 3 μl of 100 μg/ml G-CSF (NEUTROGIN, Chugai Pharmaceutical Co., Ltd.). The root canal filler prepared was injected into each root canal such that no air bubbles were contained. The mobilized dental pulp stem cells were isolated using the membrane-isolation-type culture device described above. A hemostatic gelatin sponge (Spongel) was put on the root canal filler. The cavity was completely sealed with cement and resin. On day 14 following the transplantation, the teeth were extracted. According to a common method, 5 μm paraffin sections of longitudinal cross section were prepared. The paraffin sections were then H-E stained to undergo morphological observation. To analyze angiogenesis, the sections were immunostained with BS-1 lectin. Amounts of regenerated dental pulp of four sections were measured for each sample, and an average amount of four samples was determined as the amount of regenerated dental pulp of the sample.

[4] = 50 μg/ml (0.05%), no dental pulp stem cells transplanted

## chymotrypsin
[1]
  cell adhesion to treated dentin: inferior in cell adhesiveness

## MMP3: 0.1 mg/mL MMP3, dentin treatment group (v)
[1]
  cell adhesion to treated dentin: inferior in cell adhesiveness

## O=C(O)CN(CCN(CC(=O)O)CC(=O)O)CC(=O)O [EDTA]
[1]
  cell adhesion to treated dentin: a less number of cells adhered
  induction of the dental pulp stem cells into the dental pulp and dentin: induction into the dentin was promoted

B1: GDNF: GDNF (Peproteck), positive control for neurite outgrowth (protein, UniProt P39905 78-211, looked up)
Glial cell line-derived …: SPDKQMAVLPRRERNRQAAAANPENSRGKGRRGQRGKNRGCVLTAIHLNVTDLGLGYETKEELIFRYCSGSCDAAETTYDKILKNLSRNRRLVSDKVGQACCRPIAFDDDLSFLDDNLVYHILRKHSAKRCGCI
[2]
  Neurite Outgrowth Length: 10540.1 ± 4800.7 μm

B2: trypsin (protein, UniProt P00760 24-246, looked up)
Serine protease 1: IVGGYTCGANTVPYQVSLNSGYHFCGGSLINSQWVVSAAHCYKSGIQVRLGEDNINVVEGNEQFISASKSIVHPSYNSNTLNNDIMLIKLKSAASLNSRVASISLPTSCASAGTQCLISGWGNTKSSGTSYPDVLKCLKAPILSDSSCKSAYPGQITSNMFCAGYLEGGKDSCQGDSGGPVVCSGKLQGIVSWGSGCAQKNKPGVYTKVCNYVSWIKQTIASN
notes: FRANCETIN⋅T⋅POWDER (2500 USP of crystalized trypsin per 10 mg), serine protease dental pretreatment material
[3]; 50 μg/ml (0.05%) for 10 minutes prior to root canal filler, day 14, vs no pretreatment
  increase of the amount of regenerated dental pulp: 2.5 times
[3]; 50 μg/ml (0.05%) for 30 minutes, compared with same concentration for 10 minutes, day 14
  amount of regenerated dental pulp: doubled
[3]; [4]
  dental pulp regeneration: almost no dental pulp was regenerated
  inflammation around the periapical region: no inflammation occurred
[3]; 500 μg/ml (0.5%) for 10 minutes, compared with 50 μg/ml (0.05%), day 14
  amount of regenerated dental pulp: did not cause any significant difference
[3]; after trypsin pretreatment and transplantation, day 14
  abnormality at the periapical region: Abnormality such as inflammation was not observed
[3]; day 14
  inflammatory cells, necrotic layer in dental pulp formed after treatment: did not show any increase of inflammatory cells, formation of necrotic layer
[3]; day 14, each pretreated sample
  angiogenesis in the regenerated dental pulp (BS-1 lectin): angiogenesis was observed
[3]; dog 5 years of age, 0.05% trypsin 10 minutes, day 14
  calcification in the periapical tissue (Masson Trichrome stain, vimentin immunostaining): decomposed the calcification in the periapical tissue
[1]
  cell adhesion to treated dentin: cell adhesion was facilitated
  induction of the dental pulp stem cells into the dental pulp and dentin: more promoted
